Measurements published in article PMC6156364, “Bioinformatic and in vitro Analyses of Arabidopsis Starch Synthase 2 Reveal Post-translational Regulatory Mechanisms” (Frontiers in Plant Science, 2018).
One block for each molecule: values may come before it.

Key:
Assay in all cases: SEC; gel permeation chromatography of ArcticExpress bacterial lysates on Superdex 20/300 GL in rupturing buffer (20 mM Tricine pH 7.5, 7.5 mM MgCl2, 1 mM DTT), 0.25 ml/min; fractions immunoblotted with anti-S-tag; wild type also pretreated with CKII + 1 mM ATP or with CIP
[1] = biological target: recombinant S-tagged Arabidopsis SS2 N-terminal region polypeptide (NT) (Arabidopsis thaliana) (UniProt Q9MAC8)
[2] = biological target: recombinant S-tagged Arabidopsis SS2 N-terminal truncation TRU1 (Arabidopsis thaliana) (UniProt Q9MAC8)
[3] = biological target: the molecule itself

stoichiometry N [1]: > 6
Molecule: recombinant S-tagged Arabidopsis SS2 N-terminal region polypeptide (NT) (from UniProt Q9MAC8 56-240) (domain or fragment)

stoichiometry N [2]: 2
Molecule: recombinant S-tagged Arabidopsis SS2 N-terminal truncation TRU1 (from UniProt Q9MAC8 57-792) (domain or fragment)

B1: recombinant S-tagged mature Arabidopsis thaliana starch synthase 2 (wild type) (enzyme, UniProt Q9MAC8 55-792, looked up)
chain: KCVSRVEASGSDDDEPEDALQATIDKSKKVLAMQRNLLHQIAERRKLVSSIKESTPDLDDAKASSKQESASSVNANTDATKKEIMDGDANGSVSPSTYGKSSLSKEPEAKTFSPSTESLKNRKQSSASVISSSPVTSPQKPSDVATNGKPWSSVVASSVDPPYKPSSVMTSPEKTSDPVTSPGKPSKSRAGAFWSDPLPSYLTKAPQTSTMKTEKYVEKTPDVASSETNEPGKDEEKPPPLAGANVMNVILVAAECAPFSKTGGLGDVAGALPKSLARRGHRVMVVVPRYAEYAEAKDLGVRKRYKVAGQDMEVMYFHAFIDGVDFVFIDSPEFRHLSNNIYGGNRLDILKRMVLFCKAAVEVPWYVPCGGVCYGDGNLAFIANDWHTALLPVYLKAYYRDHGIMKYTRSVLVIHNIAHQGRGPVDDFSYVDLPSHYLDSFKLYDPVGGEHFNIFAAGLKAADRVLTVSHGYSWEVKTLEGGWGLHNIINENDWKFRGIVNGIDTQEWNPEFDTYLHSDDYTNYSLENLHIGKPQCKAALQKELGLPVRPDVPLIGFIGRLDHQKGVDLIAEAVPWMMSQDVQLVMLGTGRPDLEEVLRQMEHQYRDKARGWVGFSVKTAHRITAGADILLMPSRFEPCGLNQLYAMNYGTIPVVHAVGGLRDTVQQFDPYSETGLGWTFDSAEAGKLIHALGNCLLTYREYKESWEGLQRRGMTQDLSWDNAAEKYEEVLVAAKYHW
notes: Cloned into pET29a; Predicted 85 kDa; also called SS2; AtSS2; source: E. coli ArcticExpress; in bacterial lysate (GPC); not shown: S-tag, N-terminal, kept
stoichiometry N [3]: 2
